In US20240117061A1 (WUHAN YZY BIOPHARMA, published 2024):
Where two headings read alike, the source gives them in different places.

Tests used:
[1] = target: T1, cynomolgus monkey BCMA on HEK293 cynoBCMA cells (cynomolgus monkey, UniProt A0A2K5UD97 1-183); assay: flow cytometry on HEK293 cynoBCMA cells
T1 construct: whole, on cells
Procedure: Procedures: The cells were resuspended in PBS, and the cell density was adjusted to 2×10^5 cells/well. Human-mouse chimeric monoclonal antibodies were added to a 96-well plate at 50 μL/well and serially 3-fold diluted from 3000 nM to the 9th concentration. The plate was incubated for 1 h at 4° C. 150 μL of precooled PBS containing 1% of FBS was added into the 96-well plate after the co-incubation with the primary antibody was finished. The mixtures were centrifuged at 300×g for 5 min and the supernatants were discarded. The above procedures were repeated once. The fluorescent secondary antibody PE anti-human IgG Fc (Biolegend, 409304) was added at 80 μL/well. The plate was incubated at 4° C. for 30 min. 150 μL of precooled PBS containing 1% of FBS was added into the 96-well plate after the co-incubation with the secondary antibody was finished. The 96-well plate was centrifuged at 300×g for 5 min and the supernatants were discarded. The above procedures were repeated once. The cells were resuspended in 100 μL of PBS containing 1% of FBS and detected on a flow cytometry (BD Accuri™ C6).

[2] = target: T2, recombinant cynomolgus monkey cynoBCMA-his (ACRO Biosystem, Cat. No. BCA-052H7) (cynomolgus monkey, UniProt A0A2K5UD97 1-53); assay: SPR (Biacore T200), anti-His capture on CM5, 1:1 fit
T2 construct: extracellular domain; Bought protein; also called cynomolgus/rhesus macaque BCMA/TNFRSF17 protein; not shown: His tag
T2 sequence (A0A2K5UD97 entry or part of it): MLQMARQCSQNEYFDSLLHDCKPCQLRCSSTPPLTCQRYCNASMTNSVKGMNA

[3] = target: T3, recombinant cynomolgus monkey BCMA-mFc (cynomolgus monkey; mouse); assay: indirect ELISA, coated antigen
T3 construct: also called cynoBCMA-mFc
T3 sequence (chain, as listed by the source limits assumed): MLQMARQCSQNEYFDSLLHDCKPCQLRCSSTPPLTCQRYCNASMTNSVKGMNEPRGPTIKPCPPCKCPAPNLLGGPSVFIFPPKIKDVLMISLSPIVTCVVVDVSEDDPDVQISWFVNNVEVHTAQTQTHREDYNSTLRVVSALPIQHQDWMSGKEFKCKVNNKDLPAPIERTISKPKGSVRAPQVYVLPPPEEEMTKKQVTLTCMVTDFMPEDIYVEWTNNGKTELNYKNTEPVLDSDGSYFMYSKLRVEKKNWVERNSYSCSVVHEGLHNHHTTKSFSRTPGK
Procedure: Procedures: Human, mouse and monkey BCMA antigens were prepared into 0.5 μg/mL coating solutions with PBS buffer. The coating solutions were added to a microplate at 100 μL/well and incubated at 4° C. overnight. The residual coating solution was discarded before 3% BSA was added at 300 μL/well, and the plate was blocked for 3 h at room temperature. The microplate was washed once with PB ST (PBS containing 0.1% of TWEEN 20) at 300 μL/well. The human-mouse chimeric monoclonal antibodies were serially 3-fold diluted from 10 μg/mL to the 9th concentration. The dilutions were added to the microplate at 100 μL/well. After a 1-h incubation at room temperature, the microplate was washed thrice with PB ST at 300 μL/well. The mouse anti-human IgG Fc antibody [HRP] mAb was 25,000-fold diluted with 1% BSA-PBST and added at 100 μL/well. After another 1-h incubation at room temperature, the microplate was washed thrice with PBST at 300 μL/well and dried. The TMB chromogenic solution was added at 100 μL/well. After a 5-min reaction at room temperature, 2 M H₂SO₄ was added at 100 μL/well to terminate the reaction. The microplate was placed on a microplate reader (Molecular Devices, SPECTRA Max plus 384) and the absorbance OD450 value was read at 450 nm wavelength.

[4] = target: T4, recombinant human BCMA-his fusion protein (ACRO Biosystem, Cat. No. BCA-H522y) (human, UniProt Q02223 1-54); assay: competitive ELISA: huBCMA-his coated, varied antibody added first, then APRIL-biotin, streptavidin-peroxidase, OD450; blocked ligand APRIL
T4 construct: extracellular domain; Bought protein; also called huBCMA-his; hu BCMA-his; not shown: His tag
T4 sequence (looked up): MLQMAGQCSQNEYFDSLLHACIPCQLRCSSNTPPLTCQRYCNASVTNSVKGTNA
Procedure: The 96-well microplate was treated with 100 μL of 0.5 μg/mL huBCMA-his in PBS and incubated overnight at 4° C. The plate was then washed thrice with PBS washing buffer containing 0.1% of Tween-20 and blocked with 300 μL of PBS containing 1% of BSA for 2 h. 100 μL of each BCMA antibody was added to the plate. […] The plate was incubated at 37° C. for 1 h, and unbound secondary antibody was washed with PBS washing buffer containing 0.1% of Tween-20. The TMB chromogenic solution was added at 100 μL/well. After a 5-min reaction at room temperature, 2 M H₂SO₄ was added at 100 μL/well to terminate the reaction. The microplate was placed on a microplate reader (Molecular Devices, SPECTRA Max plus 384) and the absorbance OD450 value was read at 450 nm wavelength.

[5] = target: T1, cynomolgus monkey BCMA on HEK293 …; assay: flow cytometry on HEK293 cynoBCMA cells; remark: listed apart in the source
Procedure: Procedures: Preparation of cell suspensions: The cells were resuspended in PBS, and the cell density was adjusted to 2×10⁵ cells/well. Mouse antibodies were added to a 96-well plate at […] and serially 3-fold diluted from 3000 nM. The plate was incubated for 1 h at 4° C. 150 μL of precooled PBS containing 1% of FBS was added into the 96-well plate after the co-incubation with the primary antibody was finished. The mixtures were centrifuged at 300×g for 5 min and the supernatants were discarded. The above procedures were repeated once. The fluorescent secondary antibody PE […] (Biolegend, 409304) was added at 80 μL/well. The plate was incubated at 4° C. for 30 min. 150 μL of precooled PBS containing 1% of FBS was added into the 96-well plate after the co-incubation with the secondary antibody was finished. The mixtures were uniformly mixed with a pipette. The 96-well plate was centrifuged at 300×g for 5 min in a plate centrifuge and the supernatants were removed. The above procedures were repeated once. The cells were resuspended in 100 μL of PBS containing 1% of FBS and detected on a flow cytometry (BD Accuri™ C6).

[6] = target: T4, recombinant human BCMA-his fusion …; assay: competitive ELISA, coated huBCMA-his, competitor 83A10-biotin, antibody at 7 µg/mL

T1 sequence (A0A2K5UD97 entry or part of it): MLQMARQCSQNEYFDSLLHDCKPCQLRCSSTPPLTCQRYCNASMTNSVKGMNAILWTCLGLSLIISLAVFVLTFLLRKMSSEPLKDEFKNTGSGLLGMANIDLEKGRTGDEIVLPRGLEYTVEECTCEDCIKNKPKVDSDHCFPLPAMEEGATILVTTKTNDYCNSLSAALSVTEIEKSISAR

B1: human-mouse chimeric antibody c-mAb3 (antibody, human IgG1, V domains shown)
VH: EVQLQQSGPELVKPGASVKILCKASGYTITDYNMDWVKRSHGKSLEWIGNINPHNGGSIYNQKFKGKATLTVDKSSSTAFMELRSLTSEDTAVYYCARGDATLVLDYWGQGTSLTVSS
VL: DIVLTQSPASLAVSLGQRATISCRASKSVSTSGLSYMHWYQQKPGQPPKVLIYLASNLESGVPARFSGSGSGTDFTLNIHPVEEEDAATYYCQHSRELPPTFGAGTKLELK
notes: not shown: human IgG1 heavy chain constant region, GenBank No. AK303185.1; human kappa light chain constant region, GenBank No. MG815648.1
EC50 [1]: 2.66 nM
Kd [2]: 0.106 nM
koff [2]: 0.000373 s⁻¹
kon [2]: 3.54e+06 M⁻¹ s⁻¹
EC50 [3]: 0.723 nM
IC50 (read off the curve) [4]: ~0.4 µg/mL
EC50 [5]: 2.66 nM

B2: human-mouse chimeric antibody c-mAb2 (antibody, human IgG1, V domains shown)
VH: QVQLQQSDAELVKPGTSVKISCKVSGYTFTDHTIHWMKQRPEQGLEWIGYIYPRNGNTKYNEKFKGKATLTADKSSSTAYMHLNSLTSEDSAVYFCARYDYDGYFDVWGTGTTVTVSS
VL: DVVMTQTPLSLPVSLGDQASISCRSSQSHVHSDGHTYLHWYLQKPGQSPELLIYKVSNRFSGVPDRFSGSGSGTDFTLKISRVEAEDLGVYFCSQNTHFPWTFGGGTKLEIK
notes: as for B1
competition [6]: 40%
